The assay addresses T1, Tra1 (S. cerevisiae, UniProt P38811 1-3744).
T1 construct: Tra1, S. cerevisiae, largest subunit of SAGA (433 kDa), endogenous subunit of the purified native complex; Subunit of native SAGA purified through a 3xFLAG tag; The complex was mildly cross-linked with glutaraldehyde (GraFix) before cryo-EM; also called Tra1 module; head; source: endogenous, S. cerevisiae, purified as part of native SAGA (anti-FLAG M2 resin, FLAG peptide elution, GraFix)
The assay can be described thus: cryo-EM structure; native S. cerevisiae SAGA purified by anti-FLAG and GraFix (glycerol/glutaraldehyde gradient), 40 mM HEPES pH 7.4, 150 mM NaCl, 0.01% Tween-20, vitrified on lacey carbon grids with graphene oxide; consensus map 3.1 Å, Tra1 2.9 Å, core 3.2 Å; published models (PDB 6t9j, 6t9k) fitted into the map. Particulars: both partners purified.

T1 sequence (P38811 whole entry): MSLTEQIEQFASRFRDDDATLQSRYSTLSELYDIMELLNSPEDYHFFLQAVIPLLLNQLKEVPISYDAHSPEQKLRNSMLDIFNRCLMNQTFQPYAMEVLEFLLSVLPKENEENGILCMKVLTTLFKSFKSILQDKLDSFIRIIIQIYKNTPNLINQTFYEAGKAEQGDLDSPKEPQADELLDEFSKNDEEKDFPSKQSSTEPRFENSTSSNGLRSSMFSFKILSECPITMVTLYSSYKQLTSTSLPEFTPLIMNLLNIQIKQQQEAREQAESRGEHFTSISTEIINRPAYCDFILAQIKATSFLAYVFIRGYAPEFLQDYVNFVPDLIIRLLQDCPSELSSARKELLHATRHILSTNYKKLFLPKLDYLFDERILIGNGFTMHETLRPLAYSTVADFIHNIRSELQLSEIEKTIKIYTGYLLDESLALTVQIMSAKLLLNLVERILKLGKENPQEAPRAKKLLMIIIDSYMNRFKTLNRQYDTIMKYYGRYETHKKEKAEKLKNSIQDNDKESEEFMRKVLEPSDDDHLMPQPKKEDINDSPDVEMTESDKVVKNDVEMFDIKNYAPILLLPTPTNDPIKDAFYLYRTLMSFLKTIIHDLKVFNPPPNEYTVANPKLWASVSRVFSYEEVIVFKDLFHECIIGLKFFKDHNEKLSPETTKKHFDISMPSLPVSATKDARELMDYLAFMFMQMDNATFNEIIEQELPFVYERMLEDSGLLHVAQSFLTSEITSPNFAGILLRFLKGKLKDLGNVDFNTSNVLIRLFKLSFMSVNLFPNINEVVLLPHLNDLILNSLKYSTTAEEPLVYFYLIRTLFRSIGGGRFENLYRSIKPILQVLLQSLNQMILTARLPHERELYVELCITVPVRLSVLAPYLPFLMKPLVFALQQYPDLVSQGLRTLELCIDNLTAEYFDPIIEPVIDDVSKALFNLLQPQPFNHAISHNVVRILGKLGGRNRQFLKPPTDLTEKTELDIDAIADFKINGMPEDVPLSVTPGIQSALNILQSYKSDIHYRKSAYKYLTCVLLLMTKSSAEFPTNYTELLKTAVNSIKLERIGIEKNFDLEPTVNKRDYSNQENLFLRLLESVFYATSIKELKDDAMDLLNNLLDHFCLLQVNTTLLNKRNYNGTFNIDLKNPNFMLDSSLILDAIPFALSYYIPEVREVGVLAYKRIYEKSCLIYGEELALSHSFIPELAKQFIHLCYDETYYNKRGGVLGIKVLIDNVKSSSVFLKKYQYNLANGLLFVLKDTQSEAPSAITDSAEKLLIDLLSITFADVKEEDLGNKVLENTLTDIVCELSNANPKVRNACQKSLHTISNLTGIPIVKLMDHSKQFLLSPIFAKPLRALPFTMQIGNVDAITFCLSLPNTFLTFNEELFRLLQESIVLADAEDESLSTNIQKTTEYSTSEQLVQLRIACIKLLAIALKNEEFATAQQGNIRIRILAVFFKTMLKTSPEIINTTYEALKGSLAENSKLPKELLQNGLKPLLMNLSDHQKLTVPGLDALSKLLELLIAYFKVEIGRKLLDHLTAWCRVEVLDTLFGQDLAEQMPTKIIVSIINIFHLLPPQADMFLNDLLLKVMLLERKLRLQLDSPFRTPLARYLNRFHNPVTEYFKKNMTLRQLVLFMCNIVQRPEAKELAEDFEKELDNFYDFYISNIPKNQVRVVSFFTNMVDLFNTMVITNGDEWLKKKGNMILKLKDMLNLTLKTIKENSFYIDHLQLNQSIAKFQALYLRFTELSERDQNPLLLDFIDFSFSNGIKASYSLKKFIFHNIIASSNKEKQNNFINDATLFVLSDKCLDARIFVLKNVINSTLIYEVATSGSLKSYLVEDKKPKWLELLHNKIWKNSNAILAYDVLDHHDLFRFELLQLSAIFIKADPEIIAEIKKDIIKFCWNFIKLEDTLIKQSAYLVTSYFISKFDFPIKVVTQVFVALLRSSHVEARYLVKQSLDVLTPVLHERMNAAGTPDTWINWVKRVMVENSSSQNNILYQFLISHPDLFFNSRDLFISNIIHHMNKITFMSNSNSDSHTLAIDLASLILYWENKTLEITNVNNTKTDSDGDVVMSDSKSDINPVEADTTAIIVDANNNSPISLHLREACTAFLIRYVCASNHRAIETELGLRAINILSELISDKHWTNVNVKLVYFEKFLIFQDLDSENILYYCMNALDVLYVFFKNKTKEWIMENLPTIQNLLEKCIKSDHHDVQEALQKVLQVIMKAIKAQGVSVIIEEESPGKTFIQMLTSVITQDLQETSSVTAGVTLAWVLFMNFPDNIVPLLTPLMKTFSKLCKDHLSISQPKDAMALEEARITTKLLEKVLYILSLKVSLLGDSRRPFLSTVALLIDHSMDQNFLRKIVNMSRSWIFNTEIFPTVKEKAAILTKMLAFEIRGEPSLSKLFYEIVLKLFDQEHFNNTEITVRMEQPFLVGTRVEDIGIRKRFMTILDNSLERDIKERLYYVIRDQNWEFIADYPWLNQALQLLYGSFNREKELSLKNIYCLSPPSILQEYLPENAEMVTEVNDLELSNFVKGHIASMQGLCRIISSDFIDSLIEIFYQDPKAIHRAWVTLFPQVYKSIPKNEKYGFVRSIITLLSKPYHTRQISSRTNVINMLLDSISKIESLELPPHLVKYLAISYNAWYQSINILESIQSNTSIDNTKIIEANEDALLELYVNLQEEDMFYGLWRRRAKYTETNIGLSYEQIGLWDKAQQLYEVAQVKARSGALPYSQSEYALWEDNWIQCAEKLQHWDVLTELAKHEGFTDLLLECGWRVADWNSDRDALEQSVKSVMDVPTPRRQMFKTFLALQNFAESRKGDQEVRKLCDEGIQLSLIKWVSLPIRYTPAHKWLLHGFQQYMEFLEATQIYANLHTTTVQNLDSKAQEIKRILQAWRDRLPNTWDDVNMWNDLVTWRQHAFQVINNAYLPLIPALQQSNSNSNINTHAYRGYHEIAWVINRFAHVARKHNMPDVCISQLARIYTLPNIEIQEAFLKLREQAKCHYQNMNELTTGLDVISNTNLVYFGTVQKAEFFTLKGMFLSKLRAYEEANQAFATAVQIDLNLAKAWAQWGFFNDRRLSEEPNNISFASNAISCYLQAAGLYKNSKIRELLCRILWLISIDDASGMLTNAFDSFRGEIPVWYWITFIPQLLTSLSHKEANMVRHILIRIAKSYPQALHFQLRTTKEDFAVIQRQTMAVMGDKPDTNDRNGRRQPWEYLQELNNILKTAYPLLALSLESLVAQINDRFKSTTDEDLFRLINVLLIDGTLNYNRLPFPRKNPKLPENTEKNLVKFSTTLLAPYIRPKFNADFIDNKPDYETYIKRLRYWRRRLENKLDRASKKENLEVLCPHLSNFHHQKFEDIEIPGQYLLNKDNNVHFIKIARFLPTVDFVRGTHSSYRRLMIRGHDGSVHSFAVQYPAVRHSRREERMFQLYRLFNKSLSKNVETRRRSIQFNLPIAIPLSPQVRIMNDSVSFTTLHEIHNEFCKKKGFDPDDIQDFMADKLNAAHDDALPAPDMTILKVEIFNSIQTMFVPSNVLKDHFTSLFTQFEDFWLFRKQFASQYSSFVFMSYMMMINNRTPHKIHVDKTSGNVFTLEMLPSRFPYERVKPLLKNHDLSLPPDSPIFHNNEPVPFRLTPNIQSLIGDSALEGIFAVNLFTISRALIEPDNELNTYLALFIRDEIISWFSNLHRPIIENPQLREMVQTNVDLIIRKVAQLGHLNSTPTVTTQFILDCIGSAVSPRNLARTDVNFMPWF

B1: Taf12 (natural protein, S. cerevisiae, UniProt Q03761 1-539, looked up)
chain: MSSNPENSGVNANNNTGTGNADAITGAQQNMVLQPRQLQEMAAKFRTLLTEARNVGETTPRGKELMFQAAKIKQVYDALTLNRRRQQAAQAYNNTSNSNSSNPASIPTENVPNSSQQQQQQQQQTRNNSNKFSNMIKQVLTPEENQEYEKLWQNFQVRHTSIKEKETYLKQNIDRLEQEINKQTDEGPKQQLQEKKIELLNDWKVLKIEYTKLFNNYQNSKKTFYVECARHNPALHKFLQESTQQQRVQQQRVQQQQQQQQQQQQQQQQQQQQQQQRQGQNQRKISSSNSTEIPSVTGPDALKSQQQQQNTITATNNPRGNVNTSQTEQSKAKVTNVNATASMLNNISSSKSAIFKQTEPAIPISENISTKTPAPVAYRSNRPTITGGSAMNASALNTPATTKLPPYEMDTQRVMSKRKLRELVKTVGIDEGDGETVIDGDVEELLLDLADDFVTNVTAFSCRLAKHRKSDNLEARDIQLHLERNWNIRIPGYSADEIRSTRKWNPSQNYNQKLQSITSDKVAAAKNNGNNVASLNTKK
notes: Taf12, S. cerevisiae, subunit of the SAGA core module, endogenous subunit of the purified native complex; Subunit of native SAGA purified through a 3xFLAG tag; The complex was mildly cross-linked with glutaraldehyde (GraFix) before cryo-EM; also called Taf12 core subunit; source: endogenous, S. cerevisiae, purified as part of native SAGA (anti-FLAG M2 resin, FLAG peptide elution, GraFix)
As to B1, the binding result is on record as “binds”.

B2: Spt20 (natural protein, S. cerevisiae, UniProt P50875 1-604, looked up)
chain: MSANSPTGNDPHVFGIPVNATPSNMGSPGSPVNVPPPMNPAVANVNHPVMRTNSNSNANEGTRTLTREQIQQLQQRQRLLLQQRLLEQQRKQQALQNYEAQFYQMLMTLNKRPKRLYNFVEDADSILKKYEQYLHSFEFHIYENNYKICAPANSRLQQQQKQPELTSDGLILTKNNETLKEFLEYVARGRIPDAIMEVLRDCNIQFYEGNLILQVYDHTNTVDVTPKENKPNLNSSSSPSNNNSTQDNSKIQQPSEPNSGVANTGANTANKKASFKRPRVYRTLLKPNDLTTYYDMMSYADNARFSDSIYQQFESEILTLTKRNLSLSVPLNPYEHRDMLEETAFSEPHWDSEKKSFIHEHRAESTREGTKGVVGHIEERDEFPQHSSNYEQLMLIMNERTTTITNSTFAVSLTKNAMEIASSSSNGVRGASSSTSNSASNTRNNSLANGNQVALAAAAAAAAVGSTMGNDNNQFSRLKFIEQWRINKEKRKQQALSANINPTPFNARISMTAPLTPQQQLLQRQQQALEQQQNGGAMKNANKRSGNNATSNNNNNNNNLDKPKVKRPRKNAKKSESGTPAPKKKRMTKKKQSASSTPSSTTMS
notes: Spt20, S. cerevisiae, subunit of the SAGA core module, endogenous subunit of the purified native complex; Subunit of native SAGA purified through a 3xFLAG tag; The complex was mildly cross-linked with glutaraldehyde (GraFix) before cryo-EM; also called Spt20 core subunit; source: endogenous, S. cerevisiae, purified as part of native SAGA (anti-FLAG M2 resin, FLAG peptide elution, GraFix)
As for B2, the binding result is “binds”.

These data come from publication PMC9296673, “Conformational landscape of the yeast SAGA complex as revealed by cryo-EM” (Scientific Reports, 2022).
